Target: the molecule itself
Assay: cryo-EM structure; cryoET and subtomogram averaging of spikes in situ on vitrified, chemically unfixed, purified HCoV-NL63 virions; C3 symmetry imposed; crown 6.9 Å, stalk with membrane 11.5 Å; focused classification of RBD and domain 0

B1: human coronavirus NL63 (HCoV-NL63) spike glycoprotein (S) (natural protein)
chain: CNSNANLSMLQLGVPDNSSTIVTGLLPTHWFCANQSTSVYSANGFFYIDVGNHRSAFALHTGYYDANQYYIYVTNEIGLNASVTLKICKFSRNTTFDFLSNASSSFDCIVNLLFTEQLGAPLGITISGETVRLHLYNVTRTFYVPAAYKLTKLSVKCYFNYSCVFSVVNATVTVNVTTHNGRVVNYTVCDDCNGYTDNIFSVQQDGRIPNGFPFNNWFLLTNGSTLVDGVSRLYQPLRLTCLWPVPGLKSSTGFVYFNATGSDVNCNGYQHNSVVDVMRYNLNFSANSLDNLKSGVIVFKTLQYDVLFYCSNSSSGVLDTTIPFGPSSQPYYCFINSTINTTHVSTFVGILPPTVREIVVARTGQFYINGFKYFDLGFIEAVNFNVTTASATDFWTVAFATFVDVLVNVSATNIQNLLYCDSPFEKLQCEHLQFGLQDGFYSANFLDDNVLPETYVALPIYYQHTDINFTATASFGGSCYVCKPHQVNISLNGNTSVCVRTSHFSIRYIYNRVKSGSPGDSSWHIYLKSGTCPFSFSKLNNFQKFKTICFSTVEVPGSCNFPLEATWHYTSYTIVGALYVTWSEGNSITGVPYPVSGIREFSNLVLNNCTKYNIYDYVGTGIIRSSNQSLAGGITYVSNSGNLLGFKNVSTGNIFIVTPCNQPDQVAVYQQSIIGAMTAVNESRYGLQNLLQLPNFYYVSNGGNNCTTAVMTYSNFGICADGSLIPVRPRNSSDNGISAIITANLSIPSNWTTSVQVEYLQITSTPIVVDCATYVCNGNPRCKNLLKQYTSACKTIEDALRLSAHLETNDVSSMLTFDSNAFSLANVTSFGDYNLSSVLPQRNIRSSRIAGRSALEDLLFSKVVTSGLGTVDVDYKSCTKGLSIADLACAQYYNGIMVLPGVADAERMAMYTGSLIGGMVLGGLTSAAAIPFSLALQARLNYVALQTDVLQENQKILAASFNKAINNIVASFSSVNDAITQTAEAIHTVTIALNKIQDVVNQQGSALNHLTSQLRHNFQAISNSIQAIYDRLDSIQADQQVDRLITGRLAALNAFVSQVLNKYTEVRGSRRLAQQKINECVKSQSNRYGFCGNGTHIFSIVNSAPDGLLFLHTVLLPTDYKNVKAWSGICVDGIYGYVLRQPNLVLYSDNGVFRVTSRVMFQPRLPVLSDFVQIYNCNVTFVNISRVELHTVIPDYVDVNKTLQEFAQNLPKYVKPNFDLTPFNLTYLNLSSELKQLEAKTASLFQTTVELQGLIDQINSTYVDLKLLNRFENYIKWPWWVWLIISVVFVVLLSLLVFCCLSTGCCGCCNCLTSSMRGCCDCGSTKLPYYEFEKVHVQ
modifications: N-linked glycans at 39 canonical N-glycosylation sites (36 on the crown; N1242, N1247 and N1277 on the stalk), mostly high-mannose
notes: Spike glycoprotein S of human coronavirus NL63, full-length S in the viral envelope; ectodomain residues 1 to 1297 (crown model 1-1224, stalk 1216-1297); Trimeric spike imaged in situ on intact virions; The atomic model covers only the crown (to residue 1224); The stalk model is predicted (I-TASSER, AlphaFold, CCBuilder) and fitted by MDFF; also called S trimer
- stoichiometry N: 3
